This note sets out measurements from PMC7591920, “A protein tertiary structure mimetic modulator of the Hippo signalling pathway” (Nature Communications, 2020).

Common to all, as to experiment: SPR; GST-hTEAD1 and mTEAD4 covalently tethered (NHS/EDC) on CM5 chips, 2000–3000 RU; peptides as analytes, threefold dilutions, typically 30 µM top concentration; 10 mM HEPES, 150 mM NaCl, 0.05% Tween-20, pH 7.4, 0.3% DMSO, 20 °C; steady-state fit, 1:1 model
Test [1] has as its target GST-hTEAD1(209–426) (human) (UniProt P28347).
For test [2], the target named is GST-hTEAD1(209–426) (human), P28347.
Test [3] has as its target T1, mouse TEAD4(210–427), as purified (SPR) (mouse), Q62296.
T1 chain: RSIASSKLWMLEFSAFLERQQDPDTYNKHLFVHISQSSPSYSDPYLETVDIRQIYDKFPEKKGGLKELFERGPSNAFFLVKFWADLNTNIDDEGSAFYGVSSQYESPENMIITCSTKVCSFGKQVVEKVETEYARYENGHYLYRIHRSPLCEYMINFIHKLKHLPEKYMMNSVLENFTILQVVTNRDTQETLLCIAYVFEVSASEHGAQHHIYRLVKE

The term Kd denotes a measure of binding affinity in units of concentration.

B1: VGL4(203–256), full-length VGL4-derived TEAD binding sequence (peptide 1) (peptide)
peptide: DPVVEEHFRRSLGKNYKEPEPAPNSVSITGSVDDHFAKALGDTWLQIKAAKDSA
Regarding B1, the Kd in test [1] was 1.4 µM.
Regarding SVDDHFAKALG (modifications not checked) [isolated helix peptide 5 derived from the VGL4 two-helix motif 4, Q80V24 203-256], the Kd in test [2] and in test [3] was > 100 µM in each case.
In the case of KEPEPAPNSVSITG (modifications not checked) [VGL4 intervening extended stretch peptide (peptide 3), Q80V24 203-256], the Kd in test [2] and in test [3] was > 100 µM in each case.
Turning to SVDDHFAKALGDTWLQIKAA (modifications not checked) [VGL4 C-terminal two-helix motif peptide (peptide 4, helices α2/α3), Q80V24 203-256], the Kd in test [2] came out at 4.3 µM; in test [3] it was 3.1 µM.
The like results for DTWLQIKAA (modifications not checked) [isolated helix peptide 6 derived from the VGL4 two-helix motif 4, Q80V24 203-256] were, in that order, > 100 µM and > 100 µM.
The like results for DPVVEEHFRRSLGKNY (modifications not checked) [VGL4 N-terminal α-helix peptide (peptide 2, helix α1), Q80V24 203-256] were, in that order, 19.4 µM and 21.8 µM.
